{"source": "the nanobody polyreactivity screen of Harvey et al. (2022)", "data": [{"test": "yeast display, Sf9 membrane polyspecificity reagent, FACS + sequencing; frameworks hold sequencing errors", "in_short": "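Galactose induction of a Saccharomyces cerevisiae BJ5465 synthetic nanobody display library ran 36–48 hours. The cells were then stained for 1 hour at 4 °C with 10% biotinylated, detergent-solubilized Sf9 membrane reagent, pulled down on streptavidin microbeads and FACS-sorted into low and high (top ~1%) gates on expression and reagent-binding fluorescence. Labels for polyreactivity follow the gate of origin.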", "values": [{"sequence": "QVQLVESGGGLVQAGGSLRLSCAASGSTFPYYAMGWYRQAPGKEWDLVAAISASVGSTYYADSVKGRFTISRDNAKNTVYLQMNSLKPEDTAVYYCNRVRSSYVYVSRFDSWGQGNQVTVSS", "polyreactivity (PSR sort gate)": "high polyreactivity"}, {"sequence": "QVHLVESGGGLVQAGGSLRLSCAASGRTFYDYAMGWYRQAPGKERELVAAITYSGGSTFYADSVKGRFTISRDNAKNTFYLQMNSLKPEDTAVYYCAAEVLRLVGAAEYDYWGQGTQVTVSS", "polyreactivity (PSR sort gate)": "low polyreactivity"}, {"sequence": "QVKLVETGGGLVQAGGSLRLSCAASGSTFEHYAMGWYRQAPGKERELVAAISYTGGNTYYAYSVKGRFTISRDNAKNTVYLQMNSLKPEDTAVYYCAAAPLYYHRRGYYYWGQGTQVTVSS", "polyreactivity (PSR sort gate)": "high polyreactivity"}, {"sequence": "QVQLVESGGGLVQAGGSLRLSCAASGFTIRYYAMGWYRQAPGKERELVAAISSSGGSTYYADSVKGRFTISRDNAKNTVYLQMNSLKTEDTAVYYCAAYYHGRMDYWGQGTQVTVSS", "polyreactivity (PSR sort gate)": "high polyreactivity"}, {"sequence": "QVQLVESGGGLVQAGGSLRLSCAASGSTFGPYAMGWYRQAPGKERELVAGITWSSASTYYADSVKGRFTISRDNAKNTVYLQMNSLKPEDTAVYYCIADSESTDYDYWGQGTQVTVSS", "polyreactivity (PSR sort gate)": "low polyreactivity"}, {"sequence": "QVQLVESGGGLVQAGGSLRLSCAASGSTFPFYDMGWYRQAPGKERELVTAIRSGGSTYADSVKGRFTISRDNAKNTVYLQMNSLKPVDTAVYYCAKRCPSIRYSRYRVKYDYWGQGTQVTVSS", "polyreactivity (PSR sort gate)": "low polyreactivity"}, {"sequence": "QVQLVESGGGLVQAGGSLRLSCADSGFTYAYYVMGWYRQAPGKERELVAAISISGGRTYYADSVKGRFTISRDNAKNTVYLQMNSLKPEDTAVYYCAADRRTDGHDYWGQGTQVTVSS", "polyreactivity (PSR sort gate)": "high polyreactivity"}, {"sequence": "PVQLVESGGGLVQAGGSLRLSCAASGRIFAYYAMGWYRQATGKERELVAAITRRGSTNYADSVKGRFTISGDNAKNTVYLQMNSLKQEVTAFYYCAARDAIYGSDYWGQGTQVNVSS", "polyreactivity (PSR sort gate)": "high polyreactivity"}, {"sequence": "QVQLVESGGGLVQAGGSLRIICPASGNTFAYYAMGWYRQAPGKEREFVAAISGSGGRTYYADSVKGRFTISRDNAKNTVYLQMNILKPEDTAVYYCNARPAGGQGYGYWGQGTQVTVSS", "polyreactivity (PSR sort gate)": "high polyreactivity"}, {"sequence": "QVQLVESGGGLVQAGGSLRLSCAASGYTFYIYAMGWSRQAPGKERELVATISSSGGGTYYADSVKGRFTISRDNAKNTVYFQMYSQKPEDTAVYDCNAAGWYWQAEGYDYWGQGTQVTVSS", "polyreactivity (PSR sort gate)": "low polyreactivity"}, {"sequence": "QVQLVESGGGLVQAGRSLRLSCAASGSIFTHNAMGWYRQAPGKERELVASITSRGGITYYADSVKGRFTISRDNAKNTVYLQMNSLKPEDTAVYYCAADLYIYPYDYWGQGTQVTVSS", "polyreactivity (PSR sort gate)": "low polyreactivity"}, {"sequence": "QVQLVESGGGLVQAGGSLRLSCAASGRTFTYYAMGWYRQAPGKQRELVASINQNGGDTYYADSVKGRFTLSRDNAKNTDYLQMNSLKPADTAVYYCAAEAGYYVQTVAVDMGYWGQGTQVTVSS", "polyreactivity (PSR sort gate)": "low polyreactivity"}, {"sequence": "QVQLVESGGGLVQAGGSLRLSCASSGRTFRKYAMGWYRQAPGKERELVAGIDTSGGSTFYADSVKGRFTISRDNAKNTVYLQMNSLKPEDTAVYYCNADRHRINRPVILYYWGQGTLVTVSS", "polyreactivity (PSR sort gate)": "low polyreactivity"}, {"sequence": "QVQLVESGGGLVQAGGSLRLSCAASGNTFWSYAMGWYRQAPGKERELVAAITQRGGSTYYADSVKGRFTISRDNAKNNVDLQMNSLKPEDTAVYYCAADTYYKGDYWGQGTQVTVSS", "polyreactivity (PSR sort gate)": "high polyreactivity"}, {"sequence": "QVQLVESGGGLVQAGGSLRLSCAASGLIFGTYAMGWYREARGIERELVAAITSGGRTYYADSVKGRFTISRDNAKNTVYLQLNSLKPEATAVYYCAAVLSQWGAVFLYVLSTGLDYWGQGTQVTVSS", "polyreactivity (PSR sort gate)": "low polyreactivity"}, {"sequence": "QVQLVESGGGLVQAGGSLRLSCAASGRIFDHYAMGSYRQAPGKERELVAAISGGGDSTYYAYSVKGRFTISRDNAKNTVYLQMNSLKPEDTAVFYCAADFYVYWGNYAQDYYYWGQGTQVTVSS", "polyreactivity (PSR sort gate)": "high polyreactivity"}, {"sequence": "QVQLVESGGGLVQAGGSLRLSCAASGSTFPFYAMGWYRQAPGKERELVAAITSGGSTYADSVKGRFTISRDNAKNTVYLQMNSLKPEDTAVYYCAASWPRWWRFGYWGQGTQVTVSS", "polyreactivity (PSR sort gate)": "low polyreactivity"}, {"sequence": "QVQLVESGGGLVQAGGSLRLSCAASGSIFRRYAMGWYRQAPGKERELVAAISFSGGSTYYADSVKGRFTISRDNAKNTVYLQMNSLKPEDTAVYYCAARSYAYSGDYWGQGTQVNVSS", "polyreactivity (PSR sort gate)": "high polyreactivity"}, {"sequence": "QVQLGESGGGLVQAGGSLRLSCAGSGRTFQHYFMGWYREAPGKDRELVASITNDDSTNYADSVKGLFTISRDNAKNTVYLQMNRLKPEDTAVYYCAADWTDVVPGYDYWGQGTQVTVSS", "polyreactivity (PSR sort gate)": "low polyreactivity"}, {"sequence": "QVQLVDSGGGLVQAGGSLRLSCAASGRTFGKNVMGWYREAPGKERELVAAISLSGGSTYYADSVKGRFTISRDNAKNTVYLQMNSLKPEDTAVYYCAAAAYGKPWGLDYWGQGTQVTVSS", "polyreactivity (PSR sort gate)": "low polyreactivity"}, {"sequence": "QVQLVESGGGLVQAGGSLRLSCADSGFTFWYYDMGWYRQAPGKERELVAAITNGGRTYYADSVKGRFTISRDNAKNTVYLQMNSLKPEDTAVYYCAVLGGHGFYQGDYWGQGTQVTVSS", "polyreactivity (PSR sort gate)": "high polyreactivity"}, {"sequence": "QVQLVESGGGLVQAGGSLRLSCAASGSTFGYYAMGWYRQAPGQERELVAAITSGGSTKYADSVKGRFTISRDNAKNTVYLQLISLKPEDNAVYYCATSRYFGYGYWGQGTQVTVSS", "polyreactivity (PSR sort gate)": "low polyreactivity"}]}]}
